{"source": "paper doi:10.64898/2025.12.03.692196", "key": {"[1]": {"target": "YRDC_(A41V), GAMOS-associated variant of the ΔN43 construct (human)", "test": "mass photometry"}, "[2]": {"target": "YRDC_(A41V), GAMOS-associated variant of the ΔN43 construct (human)", "test": "native gel or EMSA"}, "[3]": {"target": "YRDC_(I178T), GAMOS-associated variant of the ΔN43 construct (human)", "test": "mass photometry"}, "[4]": {"target": "YRDC_(ΔL222), GAMOS-associated variant of the ΔN43 construct (human)", "test": "mass photometry"}, "[5]": {"target": "YRDC_(ΔL222), GAMOS-associated variant of the ΔN43 construct (human)", "test": "native gel or EMSA"}, "[6]": {"target": "human YRDC lacking the N-terminal 43 residues (ΔN43 construct) (human)", "test": "mass photometry"}, "[7]": {"target": "human YRDC lacking the N-terminal 43 residues (ΔN43 construct) (human)", "test": "native gel or EMSA"}, "[8]": {"target": "human YRDC lacking the N-terminal 43 residues (ΔN43 construct) (human)", "test": "native MS"}}}
{"substance": "YRDC_(A41V), GAMOS-associated variant of the ΔN43 construct (enzyme)", "values": [{"measurement": "tetramer fraction", "setting": "[1]", "result": 24, "unit": "%"}, {"measurement": "trimer fraction", "setting": "[1]", "result": 28, "unit": "%"}, {"measurement": "stoichiometry N", "setting": "[2]", "result": 2}]}
{"substance": "YRDC_(I178T), GAMOS-associated variant of the ΔN43 construct (enzyme)", "values": [{"measurement": "dimer fraction", "setting": "[3]", "result": 19, "unit": "%"}]}
{"substance": "YRDC_(ΔL222), GAMOS-associated variant of the ΔN43 construct (enzyme)", "values": [{"measurement": "tetramer fraction", "setting": "[4]", "result": 27, "unit": "%"}, {"measurement": "trimer fraction", "setting": "[4]", "result": 44, "unit": "%"}, {"measurement": "stoichiometry N", "setting": "[5]", "result": 2}]}
{"substance": "human YRDC lacking the N-terminal 43 residues (ΔN43 construct) (enzyme)", "values": [{"measurement": "stoichiometry N", "setting": "[6]", "result": 2}, {"measurement": "stoichiometry N", "setting": "[7]", "result": 2}, {"measurement": "stoichiometry N", "setting": "[8]", "result": 2}]}
